In the supplement of paper PMC10126150:
± gives the standard deviation of the averaged measurements.

Test system: ATP
Assay: switch fluorescence ratio, 500 uM ATP over buffer (Cy3 cluster intensity, sum of 5 cycles each) (fold (ratio)); higher = stronger signal-on switching upon ATP binding; sequences stand for … in TCGTCGGCAGCGTCAGATGTGTATAAGAGACAGTTTTTTTTTTTTTTTTTTTTTTTTT…TC
Conditions: aptamer strand: ATP DNA aptamer (quencher-CACCTGGGGGAGTATTGCGGAGGAAGG + anchor), 100 nM annealed; ATP concentration: 500 uM
In short: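 For every switch-domain sequence, the fluorescence ratio is the mean of per-cluster values, each being summed target-cycle Cy3 intensity over summed buffer-cycle Cy3 intensity. Clusters outside 100-1000 RFU were excluded. On a modified Illumina MiSeq flow-cell, the Cy3-labelled switching-strand clusters were annealed to 100 nM quencher-labelled ATP aptamer, imaged in selection buffer and then after 15 min with 500 uM ATP at 22 °C. Five such cycles were run, with NaOH stripping and re-annealing between them.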
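Also: ATP exposure 15 min at 22 °C before imaging.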

Row | Sequence | switch fluorescence ratio
1 | TTGGTAAAGT | 1.03 ± 0.071
2 | ACTTCCGGG | 1.33 ± 0.27
3 | CAATGCGGGG | 1.01 ± 0.023
4 | AGTGTTGATG | 0.975 ± 0.051
5 | TAGCCAGGGG | 1.2 ± 0.076
6 | AATAGAATTT | 0.997 ± 0.035
7 | ATGTGCCTGT | 0.9799 ± 0.0065
8 | GGGGGGCAAA | 1 ± 0.015
9 | CGGCTAGAAG | 0.994 ± 0.038
10 | ATAGAGATGT | 0.978 ± 0.018
11 | AGAAAGTTGA | 1.024 ± 0.01
12 | GGCTTGGGTG | 1.08 ± 0.032
13 | GGTTGGTTTT | 0.992 ± 0.024
14 | AGGCCTGAGC | 1 ± 0.025
15 | CAGTCGACGG | 0.993 ± 0.011
16 | AAGTGGTGTC | 0.99 ± 0.13
17 | TATTGCCGCA | 1.057 ± 0.0085
18 | GGTCCAGTGT | 1.06 ± 0.016
19 | AGGCGGGGAG | 1.02 ± 0.026
20 | ACGTTTTTTT | 0.988 ± 0.035
21 | TTCTGGATGT | 0.956 ± 0.023
22 | TAATGCTAAT | 1.07 ± 0.073
23 | ATGGAAGTTA | 1.011 ± 0.0057
24 | GTGGAGGGGC | 0.958 ± 0.081
25 | TCGGCCAGTT | 1.01 ± 0.037

Row | Sequence | switch fluorescence ratio
26 | TGTTGGGGAA | 0.9676 ± 0.0074
27 | CTTTTCTGTT | 0.9861 ± 0.0085
28 | ACTTACGGGC | 1.513 ± 0.0058
29 | AAAGGTTTAC | 0.978 ± 0.025
30 | AGCCTTTGTC | 0.982 ± 0.041
31 | GGGTCTTTGT | 0.981 ± 0.026
32 | ATGAGGTGCT | 1.02 ± 0.032
33 | GAGGGCTAGT | 0.9713 ± 0.0027
34 | ATTTTAGGGT | 0.989 ± 0.022
35 | GGAAGGGAAA | 0.981 ± 0.029
36 | ATGATGGGCC | 1 ± 0.041
37 | TTTGAGAAGC | 0.992 ± 0.026
38 | TTATGGCAGA | 1.009 ± 0.01
39 | CAAGTGCCTG | 1.01 ± 0.025
40 | AGTTGGTGG | 1.02 ± 0.024
41 | ATGAGGACCC | 0.982 ± 0.022
42 | ACGGGTGGGT | 1.08 ± 0.15
43 | CGGTTGCTTG | 0.996 ± 0.034
44 | ATCCGATACG | 1.18 ± 0.023
45 | GAAATGTCGG | 1.02 ± 0.028
46 | GAGACCTTTT | 1.13 ± 0.17
47 | TTAATAATAA | 1 ± 0.034
48 | TCACGAACCT | 1.69 ± 0.1
49 | TGTAAGGGAA | 1.01 ± 0.018
50 | TAAGAGGCGC | 0.958 ± 0.077

Row | Sequence | switch fluorescence ratio
51 | TAACGCCGTG | 1.02 ± 0.029
52 | GGGGGGCGCA | 1.02 ± 0.038
53 | TTTCAGATGG | 1.006 ± 0.0093
54 | ACGGGTAGCA | 0.999 ± 0.016
55 | CCTGAATTAT | 0.9941 ± 0.0012
56 | AGGCAGGGAT | 1.01 ± 0.057
57 | GTGAGGACAA | 1.05 ± 0.036
58 | TGTTCTAGTT | 1.01 ± 0.015
59 | TAAGGGAAAT | 1 ± 0.065
60 | TTTCGGAGGG | 0.982 ± 0.034
61 | CATTGCGGGA | 1.02 ± 0.024
62 | ATAAGTTGGG | 0.968 ± 0.024
63 | CAATGAGTTT | 0.97 ± 0.033
64 | AGAGTTAACG | 0.97158 ± 0.00066
65 | GATGTCGTTT | 1.02 ± 0.049
66 | GAATTGGGTA | 0.957 ± 0.014
67 | AAAGGGTGCT | 1.1 ± 0.015
68 | AATGGGGCGG | 1.03 ± 0.034
69 | CATAGCCTAA | 1.008 ± 0.0031
70 | AAGATGAGCT | 1.004 ± 0.0043
71 | CAGTATCCTT | 1.027 ± 0.003
72 | CTCAGGGGGT | 0.9759 ± 0.007
73 | TGTGAAAAGT | 0.996 ± 0.028
74 | CCCGCTGCTT | 1.33 ± 0.021
75 | GGGAGCTACA | 1.02 ± 0.017

Row | Sequence | switch fluorescence ratio
76 | ATTAATTGTG | 1.01 ± 0.018
77 | CTTAGGGGTA | 0.999 ± 0.043
78 | TAGAGGTCTT | 0.98 ± 0.016
79 | TGCGTGGGGA | 1.04 ± 0.0057
80 | CCGGCTGGGT | 0.9584 ± 0.0069
81 | CGCGTAAAAT | 1.04 ± 0.035
82 | GCGGCTTCGG | 1.04 ± 0.032
83 | AGTATCTGGG | 0.9886 ± 0.0094
84 | AGAGTGATGC | 1 ± 0.087
85 | TAGTGTGTTT | 0.9823 ± 0.0095
86 | GAAGTCCAGA | 1.01 ± 0.07
87 | TTTATGGAGT | 1.024 ± 0.0018
88 | TTAAGGCATT | 1.06 ± 0.03
89 | CCAGACGGTC | 1.04 ± 0.085
90 | TTAGTCCCCG | 1.02 ± 0.038
91 | GGCTAGACGT | 1.031 ± 0.0023
92 | ACGCATTATT | 1.62 ± 0.051
93 | AAGGAGCTAT | 1.05 ± 0.026
94 | GACATAAGCA | 1.03 ± 0.017
95 | TAGGTCGTTT | 0.982 ± 0.01
96 | TGGGAAGGTG | 1.7 ± 0.33
97 | TGGGGATCGA | 1.04 ± 0.011
98 | TCGGGTTTGT | 1.01 ± 0.011
99 | TCGTCTTATA | 0.991 ± 0.014
100 | CCACAATTTT | 1.43 ± 0.63

Row | Sequence | switch fluorescence ratio
101 | TCGTCATGTT | 0.999 ± 0.015
102 | GGAACAGGTG | 3.49 ± 2
103 | CCAGCGTGCT | 1.11 ± 0.08
104 | GGGGGGTTCT | 1.01 ± 0.042
105 | AGTTTGTTCG | 0.953 ± 0.022
106 | CCAGTCAACG | 0.9802 ± 0.0085
107 | CCGTAATTGA | 2.75 ± 0.16
108 | GGTATTCAGC | 0.957 ± 0.052
109 | ATCGTGCCGT | 1.01 ± 0.041
110 | TTGATGGTGG | 0.987 ± 0.056
111 | GAGATTGCGT | 1.01 ± 0.028
112 | CATGAAAAGT | 0.978 ± 0.047
113 | TCGGTTTTGC | 0.982 ± 0.028
114 | CGTTTATGAG | 1.022 ± 0.0067
115 | ATGAGGGGCT | 0.986 ± 0.037
116 | TTTCAGGTTA | 1.06 ± 0.012
117 | ATATCTAGTT | 0.989 ± 0.084
118 | AAGCTCGACG | 0.9695 ± 0.0026
119 | TGGCTTGCG | 1.01 ± 0.04
120 | AAGCTCGCCG | 0.981 ± 0.06
121 | CAATTATGAC | 1 ± 0.045
122 | TCAAACGTAT | 1.06 ± 0.022
123 | GCCTCTTAAG | 1 ± 0.032
124 | GGGTGGTTTG | 1.006 ± 0.0097
125 | ACAGGGGGGG | 1.07 ± 0.19

Row | Sequence | switch fluorescence ratio
126 | GAGAAATCTT | 1.01 ± 0.03
127 | TTGGGAAATT | 1.02 ± 0.04
128 | ACTGGGGGGC | 1.05 ± 0.016
129 | TATACAATGG | 1.01 ± 0.024
130 | AAAAATGGGG | 0.972 ± 0.0098
131 | TTTTTCTATT | 0.988 ± 0.019
132 | AAGTCCCAGC | 0.995 ± 0.048
133 | CTGTGGCGCT | 1.01 ± 0.019
134 | GGTTCAGGCT | 0.977 ± 0.025
135 | ATGTAATTTG | 0.988 ± 0.03
136 | CGTGTTGGAT | 0.997 ± 0.062
137 | GGAATCCGTT | 1.027 ± 0.0025
138 | TTGTTCGCTT | 1.03 ± 0.025
139 | GGTTCAGATG | 1.0081 ± 0.00081
140 | ACCGCGGTCG | 0.974 ± 0.049
141 | GCTACCATAT | 1.07 ± 0.015
142 | CAGTGGACCG | 1.004 ± 0.0011
143 | CTAATGGGTT | 0.98 ± 0.037
144 | GAAGTCCGGG | 0.9871 ± 0.0048
145 | GGGTCTCATC | 1.02 ± 0.065
146 | TCCAGGGGCA | 1.67 ± 0.1
147 | GGGTTCTGGA | 1.01 ± 0.019
148 | TTTATAAAGA | 1.02 ± 0.059
149 | TTAGCATATT | 1.01 ± 0.021
150 | GATTTGCAGG | 0.983 ± 0.033

Row | Sequence | switch fluorescence ratio
151 | GTCCAGGGGA | 1.04 ± 0.1
152 | AGGTTGAGCT | 0.9791 ± 0.0021
153 | ATGGGGGGAG | 0.997 ± 0.025
154 | CGTCGGGGGG | 1.008 ± 0.008
155 | TTTCGCCATA | 2.39 ± 2
156 | CTAATGGACC | 1.01 ± 0.03
157 | TTGAGGCCCG | 0.9375 ± 0.0031
158 | TTGATTGTTT | 0.987 ± 0.016
159 | GGGATTAACT | 1 ± 0.031
160 | GATTCGAATC | 1 ± 0.034
161 | TCGGTCGTTT | 0.976 ± 0.015
162 | TACATTAATT | 1.02 ± 0.047
163 | GGGGGAAAGA | 0.989 ± 0.047
164 | TGTTTAATTG | 0.97673 ± 0.0004
165 | AGGGGGATCT | 1.03 ± 0.04
166 | TGATTCAAAG | 1.01 ± 0.035
167 | GAATAAAAGC | 0.9901 ± 0.0063
168 | ATCGCTGGTA | 1.02 ± 0.031
169 | GATGGTTCGC | 0.976 ± 0.015
170 | GTATGTCCCC | 1.0169 ± 0.00096
171 | CGGTAGGGGA | 1.023 ± 0.01
172 | AGACGGCTTG | 1.01 ± 0.025
173 | TTGTTGGGGA | 1 ± 0.019
174 | GGGGGTGATC | 0.979 ± 0.024
175 | TTTATACGTT | 1.01 ± 0.044

Row | Sequence | switch fluorescence ratio
176 | TAACAGGAAT | 0.966 ± 0.042
177 | GGATGCAATG | 1.16 ± 0.025
178 | AAAAAGGGGT | 1.15 ± 0.34
179 | TACGGGGGAG | 0.995 ± 0.02
180 | ATAAGATTTT | 1.01 ± 0.048
181 | AACGCATATT | 1.85 ± 0.78
182 | TATATAGTCT | 1.024 ± 0.0086
183 | ATAGGGGCTC | 0.988 ± 0.021
184 | CTGGGGTATG | 0.985 ± 0.028
185 | AGGCAACCAA | 1.02 ± 0.017
186 | TAACAGGTAT | 1 ± 0.046
187 | AGACTTTTAT | 0.976 ± 0.031
188 | GCCGAGGTGA | 1.09 ± 0.13
189 | TGAAGTGTTG | 0.99 ± 0.019
190 | CGGACTATAT | 1.07 ± 0.032
191 | GTGTTAGACT | 0.9618 ± 0.0092
192 | GGCCTGGATC | 1.02 ± 0.057
193 | GCCCTTGGTT | 1.02 ± 0.074
194 | CGGCTAGTGC | 1.05 ± 0.042
195 | TAGGACAGCG | 0.969 ± 0.078
196 | GGTTTCGCGA | 1.07 ± 0.053
197 | AGAGGGGAT | 1 ± 0.021
198 | AGTTGGATC | 1.02 ± 0.015
199 | GGGGGGGCCA | 1.01 ± 0.041
200 | GCACGTGTTC | 1.119 ± 0.0096
